The test concerns the target KRAS (aa 1–170, Homo sapiens), wild type (Homo sapiens) (UniProt P01116).

Among the data in paper PMC6547725 are GTPase activity of KRAS wild type (GTP hydrolysis over time, HPLC) with 0.25 μM RAS-GAP; values, retold here.

With “RasGAP (aa 722–1056, Homo sapiens) (domain or fragment)”, the GTPase activity of KRAS wild type (GTP hydrolysis over time, HPLC) with 0.25 μM RAS-GAP; at 2.5 μM and 25 μM too fast to be resolved came out at 3.5 fold.
